Values quoted from earlier work as cited in patent publication US20180147231A1, “METHOD FOR TREATMENT AND PROGNOSIS OF COLORECTAL CANCER” (Oxford University Innovation Limited, priority 2015, published 2018).

B1: D67A: variant of IL-22 (SEQ ID NO: 5) in which D67 is mutated to alanine (protein, listed as Homo sapiens)
chain: MAALQKSVSSFLMGTLATSCLLLLALLVQGGAAAPISSHCRLDKSNFQQPYITNRTFMLAKEASLAANNTDVRLIGEKLFHGVSMSERCYLMKQVLNFTLEEVLFPQSDRFQPYMQEVVPFLARLSNRLSTCHIEGDDLHIQRNVQKLKDTVKKLGESGEIKAIGELDLLFMSLRNACI
B2: V72A: variant of IL-22 (SEQ ID NO: 5) in which V72 is mutated to A (protein, listed as Homo sapiens)
chain: MAALQKSVSSFLMGTLATSCLLLLALLVQGGAAAPISSHCRLDKSNFQQPYITNRTFMLAKEASLADNNTDARLIGEKLFHGVSMSERCYLMKQVLNFTLEEVLFPQSDRFQPYMQEVVPFLARLSNRLSTCHIEGDDLHIQRNVQKLKDTVKKLGESGEIKAIGELDLLFMSLRNACI
B3: I161A: variant of IL-22 (SEQ ID NO: 5) in which I161 is mutated to alanine (protein, listed as Homo sapiens)
chain: MAALQKSVSSFLMGTLATSCLLLLALLVQGGAAAPISSHCRLDKSNFQQPYITNRTFMLAKEASLADNNTDVRLIGEKLFHGVSMSERCYLMKQVLNFTLEEVLFPQSDRFQPYMQEVVPFLARLSNRLSTCHIEGDDLHIQRNVQKLKDTVKKLGESGEAKAIGELDLLFMSLRNACI
B4: K162A: variant of IL-22 (SEQ ID NO: 5) in which K162 is mutated to alanine (protein, listed as Homo sapiens)
chain: MAALQKSVSSFLMGTLATSCLLLLALLVQGGAAAPISSHCRLDKSNFQQPYITNRTFMLAKEASLADNNTDVRLIGEKLFHGVSMSERCYLMKQVLNFTLEEVLFPQSDRFQPYMQEVVPFLARLSNRLSTCHIEGDDLHIQRNVQKLKDTVKKLGESGEIAAIGELDLLFMSLRNACI
B5: N54G: reduced-function variant of IL-22 (SEQ ID NO: 5) in which N54 is mutated from asparagine to glutamine (protein, listed as Homo sapiens)
chain: MAALQKSVSSFLMGTLATSCLLLLALLVQGGAAAPISSHCRLDKSNFQQPYITGRTFMLAKEASLADNNTDVRLIGEKLFHGVSMSERCYLMKQVLNFTLEEVLFPQSDRFQPYMQEVVPFLARLSNRLSTCHIEGDDLHIQRNVQKLKDTVKKLGESGEIKAIGELDLLFMSLRNACI
B6: T56A: variant of IL-22 (SEQ ID NO: 5) in which T56 is mutated to alanine (protein, listed as Homo sapiens)
chain: MAALQKSVSSFLMGTLATSCLLLLALLVQGGAAAPISSHCRLDKSNFQQPYITNRAFMLAKEASLADNNTDVRLIGEKLFHGVSMSERCYLMKQVLNFTLEEVLFPQSDRFQPYMQEVVPFLARLSNRLSTCHIEGDDLHIQRNVQKLKDTVKKLGESGEIKAIGELDLLFMSLRNACI
B7: Y51A: variant of IL-22 (SEQ ID NO: 5) in which Y51 is mutated to A (protein, listed as Homo sapiens)
chain: MAALQKSVSSFLMGTLATSCLLLLALLVQGGAAAPISSHCRLDKSNFQQPAITNRTFMLAKEASLADNNTDVRLIGEKLFHGVSMSERCYLMKQVLNFTLEEVLFPQSDRFQPYMQEVVPFLARLSNRLSTCHIEGDDLHIQRNVQKLKDTVKKLGESGEIKAIGELDLLFMSLRNACI
B8: R55A: variant of IL-22 (SEQ ID NO: 5) in which R55 is mutated to alanine (protein, listed as Homo sapiens)
chain: MAALQKSVSSFLMGTLATSCLLLLALLVQGGAAAPISSHCRLDKSNFQQPYITNATFMLAKEASLADNNTDVRLIGEKLFHGVSMSERCYLMKQVLNFTLEEVLFPQSDRFQPYMQEVVPFLARLSNRLSTCHIEGDDLHIQRNVQKLKDTVKKLGESGEIKAIGELDLLFMSLRNACI
B9: N54A: variant of IL-22 (SEQ ID NO: 5) in which N54 is mutated to alanine (protein, listed as Homo sapiens)
chain: MAALQKSVSSFLMGTLATSCLLLLALLVQGGAAAPISSHCRLDKSNFQQPYITARTFMLAKEASLADNNTDVRLIGEKLFHGVSMSERCYLMKQVLNFTLEEVLFPQSDRFQPYMQEVVPFLARLSNRLSTCHIEGDDLHIQRNVQKLKDTVKKLGESGEIKAIGELDLLFMSLRNACI
B10: F121A: variant of IL-22 (SEQ ID NO: 5) in which F121 is mutated to alanine (protein, listed as Homo sapiens)
chain: MAALQKSVSSFLMGTLATSCLLLLALLVQGGAAAPISSHCRLDKSNFQQPYITNRTFMLAKEASLADNNTDVRLIGEKLFHGVSMSERCYLMKQVLNFTLEEVLFPQSDRFQPYMQEVVPALARLSNRLSTCHIEGDDLHIQRNVQKLKDTVKKLGESGEIKAIGELDLLFMSLRNACI
B11: E117A: variant of IL-22 (SEQ ID NO: 5) in which E117 is mutated to alanine (protein, listed as Homo sapiens)
chain: MAALQKSVSSFLMGTLATSCLLLLALLVQGGAAAPISSHCRLDKSNFQQPYITNRTFMLAKEASLADNNTDVRLIGEKLFHGVSMSERCYLMKQVLNFTLEEVLFPQSDRFQPYMQAVVPFLARLSNRLSTCHIEGDDLHIQRNVQKLKDTVKKLGESGEIKAIGELDLLFMSLRNACI

Target: T1, IL-22RA1 subunit of the receptor (Homo sapiens, UniProt Q8N6P7)
T1 sequence (Q8N6P7 16-574): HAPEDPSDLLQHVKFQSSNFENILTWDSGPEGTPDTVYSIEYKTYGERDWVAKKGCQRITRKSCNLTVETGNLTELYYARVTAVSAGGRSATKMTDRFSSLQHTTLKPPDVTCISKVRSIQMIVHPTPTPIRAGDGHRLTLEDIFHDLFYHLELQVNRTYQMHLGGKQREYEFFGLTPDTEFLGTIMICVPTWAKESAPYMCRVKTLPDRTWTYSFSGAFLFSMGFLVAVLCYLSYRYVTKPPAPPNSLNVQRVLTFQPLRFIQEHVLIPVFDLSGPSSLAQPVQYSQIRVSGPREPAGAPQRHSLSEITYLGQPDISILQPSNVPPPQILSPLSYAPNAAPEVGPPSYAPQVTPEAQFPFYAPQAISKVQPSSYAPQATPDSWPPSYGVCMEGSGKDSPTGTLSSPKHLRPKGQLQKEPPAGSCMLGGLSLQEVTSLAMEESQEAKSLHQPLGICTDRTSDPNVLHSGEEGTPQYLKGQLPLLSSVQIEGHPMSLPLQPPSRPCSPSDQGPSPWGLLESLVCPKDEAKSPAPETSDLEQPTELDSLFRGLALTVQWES
Details: variant of IL-22 (SEQ ID NO: 5) compared with wild type; cited from earlier work

Binding to the IL-22RA1 subunit of the receptor, reduce binding:
B1
B2
B3
B4

Target: T2, IL-22R complex (Homo sapiens, UniProt Q08334+Q8N6P7)
T2 sequence (Q8N6P7 16-228 limits assumed): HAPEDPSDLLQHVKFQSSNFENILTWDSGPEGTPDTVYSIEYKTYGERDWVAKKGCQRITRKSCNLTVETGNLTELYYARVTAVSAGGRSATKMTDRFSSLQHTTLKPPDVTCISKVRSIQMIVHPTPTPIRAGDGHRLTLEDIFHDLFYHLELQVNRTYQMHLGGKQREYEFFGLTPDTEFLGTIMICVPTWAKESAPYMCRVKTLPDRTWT
T2 sequence (Q08334 20-220 limits assumed): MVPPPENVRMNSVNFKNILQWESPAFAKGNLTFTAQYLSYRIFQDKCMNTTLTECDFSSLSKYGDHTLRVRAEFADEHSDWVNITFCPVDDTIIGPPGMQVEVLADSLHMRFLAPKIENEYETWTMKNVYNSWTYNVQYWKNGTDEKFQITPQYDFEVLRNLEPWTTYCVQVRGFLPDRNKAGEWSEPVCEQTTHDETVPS
Details: variant of IL-22 (SEQ ID NO: 5) compared with wild type; cited from earlier work

Binding to the IL-22R complex, reduce binding:
B5
B6
B7
B8
B9
B10
B11
